Measurements taken from patent US20040058369A1.

Target: αRXR co-transfected into HEK293 cells
Test: cell-based or functional assay

An induction of reporter activity in HEK293 cells co-transfected with αRXR, effector and reporter, compared to the untreated cells of 9 fold and a reporter activity with αRXR co-transfected, compared to cells transfected with effector and reporter alone of 4 fold were found for “Heliothis virescens ecdysone receptor (HEcR) as expressed from effector plasmid pcDNA3H3KHEcR” in this work.
